From paper PMC11890865

How the values were obtained:
Assay in all cases: cryo-EM structure; ZorAB complex co-expressed from one operon and co-purified in LMNG; TBS (100 mM Tris, 150 mM NaCl, 1 mM EDTA, pH 8.0) plus 0.02% LMNG; Quantifoil Au grids, Titan Krios G4 at 300 kV
[1] = target: ZorA I from Shewanella sp. ANA-3 (Zorya type I) (Shewanella sp. strain ANA-3)
[2] = target: ZorA II from Sulfuricurvum kujiense DSM 16994 (Zorya type II) (Sulfuricurvum kujiense DSM 16994)
[3] = target: ZorB I from Shewanella sp. ANA-3 (Zorya type I) (Shewanella sp. strain ANA-3)
[4] = target: ZorB II from Sulfuricurvum kujiense DSM 16994 (Zorya type II) (Sulfuricurvum kujiense DSM 16994)

ZorA I from Shewanella sp. ANA-3 (Zorya type I) (natural protein)
stoichiometry N [1]: 5

ZorA II from Sulfuricurvum kujiense DSM 16994 (Zorya type II) (natural protein)
stoichiometry N [2]: 5

ZorB I from Shewanella sp. ANA-3 (Zorya type I) (natural protein)
stoichiometry N [3]: 2

ZorB II from Sulfuricurvum kujiense DSM 16994 (Zorya type II) (natural protein)
stoichiometry N [4]: 2
